# Measurements: patent publication EP3259288B1 (Innate Pharma, dated 2026)
# What was measured:
# [1] = biological target: recombinant human CD73-His extracellular domain recombinant protein (soluble dimer) (human) (UniProt P21589); test: ELISA, recombinant human CD73 coated at 5 µg/ml, antibody titrated
# [2] = biological target: T1, human CD73 expressed at the cell surface (human, UniProt P21589 27-549); test: cell-based or functional assay
# T1 sequence: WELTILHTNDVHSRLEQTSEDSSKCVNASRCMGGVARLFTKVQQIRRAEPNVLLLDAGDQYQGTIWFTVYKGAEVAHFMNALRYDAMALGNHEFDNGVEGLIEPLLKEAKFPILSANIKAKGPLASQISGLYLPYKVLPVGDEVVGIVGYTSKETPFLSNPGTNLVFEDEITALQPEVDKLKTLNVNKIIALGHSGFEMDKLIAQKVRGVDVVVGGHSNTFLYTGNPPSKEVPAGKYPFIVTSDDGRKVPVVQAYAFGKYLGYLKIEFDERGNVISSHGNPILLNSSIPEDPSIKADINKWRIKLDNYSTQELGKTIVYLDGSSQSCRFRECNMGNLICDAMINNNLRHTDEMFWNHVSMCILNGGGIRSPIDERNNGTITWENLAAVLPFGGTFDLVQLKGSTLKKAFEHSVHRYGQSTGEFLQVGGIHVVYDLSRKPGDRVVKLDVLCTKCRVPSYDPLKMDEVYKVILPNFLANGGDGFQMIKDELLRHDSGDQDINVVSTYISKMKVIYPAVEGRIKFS
# [3] = biological target: T1, human CD73 expressed at the cell surface; test: cell-based or functional assay; remark: listed apart in the source
# [4] = biological target: T1, human CD73 expressed at the cell surface; test: cell-based or functional assay; remark: listed apart in the source
# [5] = biological target: T1, human CD73 expressed at the cell surface; test: cell-based or functional assay; remark: listed apart in the source
# [6] = biological target: T2, recombinant human CD73-His extracellular domain recombinant protein (soluble dimer) (human, UniProt P21589 27-547, limits assumed); test: cell-based or functional assay
# T2 sequence: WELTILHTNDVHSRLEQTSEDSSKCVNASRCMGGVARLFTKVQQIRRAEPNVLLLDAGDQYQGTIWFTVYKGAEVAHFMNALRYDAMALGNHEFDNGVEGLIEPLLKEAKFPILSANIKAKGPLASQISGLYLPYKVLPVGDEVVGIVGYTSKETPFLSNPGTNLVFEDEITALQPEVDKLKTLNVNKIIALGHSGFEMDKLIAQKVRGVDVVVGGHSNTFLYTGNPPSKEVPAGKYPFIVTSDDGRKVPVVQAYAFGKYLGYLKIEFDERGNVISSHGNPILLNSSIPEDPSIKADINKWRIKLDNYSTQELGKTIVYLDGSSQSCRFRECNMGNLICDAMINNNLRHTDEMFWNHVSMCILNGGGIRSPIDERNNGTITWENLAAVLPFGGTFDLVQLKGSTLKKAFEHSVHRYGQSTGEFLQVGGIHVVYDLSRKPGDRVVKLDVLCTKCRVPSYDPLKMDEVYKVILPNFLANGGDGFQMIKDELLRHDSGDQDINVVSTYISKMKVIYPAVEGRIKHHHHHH
Molecule,EC50 [1] [µg/mL],"down-modulation of CD73 expression on MDA-MB-231 cells (10 µg/ml antibody, time course) [2] [%]","EC50 for neutralization of cellular CD73 enzymatic activity, mean over MDA-MB-231, H292 and A375 cells (N=8) [3] [µg/mL]","EC70 for neutralization of cellular CD73 enzymatic activity, mean over MDA-MB-231, H292 and A375 cells (N=8) [3] [µg/mL]","EC100 for neutralization of cellular CD73 enzymatic activity, mean over MDA-MB-231, H292 and A375 cells (N=8) [3] [µg/mL]","EC50 for neutralization of enzymatic activity of cellular CD73 (MDA-MB-231 cells, free phosphate from AMP hydrolysis, Malachite Green) [4] [µg/mL]",decrease of enzymatic activity of cellular CD73 (MDA-MB-231) [5] [%],"EC50 for CD73 blockade (enzymatic activity of soluble recombinant human CD73-his, Cell Titer Glo luciferase read-out) [6] [µg/mL]","EC50 for neutralization of cellular CD73 enzymatic activity, mean over MDA-MB-231, H292 and A375 cells (N=2) [3] [µg/mL]"
antibody 7G2 (Life Technologies Corp.),0.037,> 50,,,,,,,
"antibody 11E1 (antibody, V domains shown) VH: EIQLQQSGPELVKPGASVKVSCKASGYAFTSYNMYWVKQSHGKSLEWIGYIDPYNGGTSYNQKFKGKATLTVDKSSSTAYMHLNSLTSEDSAVYYCARGYGNYKAWFAYWGQGTLVTVSA VL: DAVMTQTPKFLLVSAGDRVTITCKASQSVTNDVAWYQQKPGQSPKLLIYYASNRYTGVPDRFTGSGYGTDFTFTISTVQAEDLAVYFCQQDYSSLTFGAGTKLELK",,,0.1,0.15,0.52,0.195,> 75,0.41,
"antibody 8C7 (antibody, V domains shown) VH: EVQLQQSGPELVKPGASVKVSCKASGYAFASYNMNWVKQSHGKSLDWIGYIDPYNGGSSYNLTFKGKATLTVDKSSTTAYMHLNSLTSEDSAVYYCARGYGNYKAWFAYWGQGTLVTVSA VL: SIVMTPTPKFLLVSAGDRVTITCKASQSVSNDVAWYQQKPGQSPKLLIYYASTRYTGVPDRFTGSGYGTDFTFTISTVQAEDLAVYFCQQDYSSLTFGAGTKLELKR",,,,,,0.319,> 75,1.29,0.21
"antibody 3C12 (antibody, V domains shown) VH: QIQLQQSGPELVKPGASVKVSCKASGYAFASYNMNWVKQSHGKSLDWIGYIDPYNGGSSYNLTFKGKATLTVDKSSTTAYMHLNSLTSEDSAVYYCARGYGNYKAWFAYWGQGTLVTVSA VL: DVVMTQTPKFLLVSAGDRVTITCKASQSVSNDVAWYQQKPGQSPKLLIYYASTRYTGVPDRFTGSGYGTDFTFTISTVQAEDLAVYFCQQDYSSLTFGAGTKLELKR",,,0.14,0.18,0.3,0.21,> 75,0.41,
"antibody 6E1 (antibody, V domains shown) VH: EFQLQQSGPELVKPGASVKVSCKASGYAFTSYNMYWVKQSHGKRLEWIGYIDPYNGGSSYNQKFKGKATLTVDKSSSTAYMHLNNLTSEDSAVYYCARGYNNYKAWFAYWGQGTLVTVSA VL: SIVMTQTPKFLLVSAGDRVTITCKASQSVTNDVAWYQQKPGQSPKLLIYYASNRYTGVPDRFTGSGYGTDFTFTISTMQAEDLAVYFCQQDYSSLTFGAGTKLELK",,,0.13,0.19,0.68,0.209,> 75,0.33,
